One substance from paper PMC10381965 can be followed below.

The target in the experiment is CENP-A nucleosome (CENP-A^Nuc), histone octamer of CENP-A, H4, H2A and H2B wrapped with C0N3 or CEN3 DNA (S. cerevisiae) (UniProt P36012). The experiment can be described thus: SEC-MALS; CENP-A nucleosome (C0N3 or CEN3 DNA), CENP-C, CENP-LN, CENP-OPQU+, CENP-HIK-TW, CBF1 and CBF3^Core mixed at 2 μM; cross-linked with 3 mM BS3; 10 mM Hepes pH 8.0, 80 mM NaCl, 1 mM EDTA, 0.5 mM TCEP. A general note: In gel filtration, larger molecules generally elute earlier.

A word on the stoichiometry N: it is a count of units in the complex or per binding partner.

Substance “CCAN, fully assembled (CENP-C, CENP-LN, CENP-OPQU+, CENP-HIK-TW) (from UniProt P35201 1-549; P38265 1-245; P38907 1-458; Q06675 1-368; Q02732 1-369; P53298 1-406; P38313 1-324; Q12493 1-238; Q06162 1-153; Q12262 1-181; Q12748 1-733; P47167 1-239; P43618 1-361; Q2V2P8 1-89) (complex)” had a stoichiometry N of 2.
